The Kd is the constant that tells how readily two partners part at equilibrium. The EC50 is the concentration needed to bring the measured effect to its halfway point. Read a high EC50 as weaker potency.

The target in assay [1] is T1, mouse fl-CDCP1 (recombinant uncleaved mouse CDCP1) (mouse, UniProt Q5U462 30-666).
T1 construct: The mouse antigen made was fl-CDCP1-Fc; also called mouse fl-CDCP1-Fc
T1 sequence: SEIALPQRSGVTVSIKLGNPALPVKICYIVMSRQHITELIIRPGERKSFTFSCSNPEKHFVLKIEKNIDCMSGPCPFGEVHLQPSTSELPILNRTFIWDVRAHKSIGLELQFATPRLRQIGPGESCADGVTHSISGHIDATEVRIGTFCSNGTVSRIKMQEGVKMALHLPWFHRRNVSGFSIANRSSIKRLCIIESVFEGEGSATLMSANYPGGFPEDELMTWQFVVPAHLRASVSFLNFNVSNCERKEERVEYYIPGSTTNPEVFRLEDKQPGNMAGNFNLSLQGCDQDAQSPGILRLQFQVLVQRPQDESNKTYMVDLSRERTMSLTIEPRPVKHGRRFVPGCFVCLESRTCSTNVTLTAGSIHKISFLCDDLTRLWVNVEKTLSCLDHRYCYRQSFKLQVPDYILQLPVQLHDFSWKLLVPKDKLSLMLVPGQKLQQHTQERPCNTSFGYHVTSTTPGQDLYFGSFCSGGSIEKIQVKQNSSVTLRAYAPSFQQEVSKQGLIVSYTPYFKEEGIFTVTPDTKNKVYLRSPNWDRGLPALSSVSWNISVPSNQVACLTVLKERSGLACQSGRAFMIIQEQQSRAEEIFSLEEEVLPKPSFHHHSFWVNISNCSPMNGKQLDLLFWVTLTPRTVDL
As to the kind of experiment: BLI (Octet), mouse fl-CDCP1-Fc on the sensor, IgG CL03 as analyte. (In general: Biolayer interferometry detects binding as a change in optical thickness at a sensor tip.)

In another assay the target is T2, His-CUB1 (human, UniProt Q9H5V8 30-367, limits assumed).
T2 construct: also called CUB1 (His-CUB1, soluble NTF); not shown: His tag
T2 sequence: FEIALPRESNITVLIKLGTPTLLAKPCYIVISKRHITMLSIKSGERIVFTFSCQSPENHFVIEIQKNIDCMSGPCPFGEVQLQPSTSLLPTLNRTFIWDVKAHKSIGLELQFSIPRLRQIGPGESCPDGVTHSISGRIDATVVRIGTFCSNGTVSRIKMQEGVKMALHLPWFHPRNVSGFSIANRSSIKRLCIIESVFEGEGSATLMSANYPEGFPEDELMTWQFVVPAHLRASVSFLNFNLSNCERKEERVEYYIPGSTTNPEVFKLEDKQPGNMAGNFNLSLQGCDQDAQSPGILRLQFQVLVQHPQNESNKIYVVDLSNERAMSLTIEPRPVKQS
As to the kind of experiment: sandwich ELISA, CL03 as capture antibody, antigen titrated (ng/mL), anti-CDCP1 polyclonal antibody for detection. The protocol:
(§1) CUB1 N-terminal fragment (NTF) is present only in human serum. Since CL03 binds to an epitope on CUB1 domain that is exposed upon proteolysis, CUB1 (NTF) would serve as a sink to CL03 that decreases the viable concentration of CL03 on tumor site if it binds to CUB1 only in human serum. To further investigate the binding mechanism of CL03, an ELISA experiment was performed in which the binding of CL03 to CUB1 in human serum was evaluated. ELISA assays were performed as generally described in Example 1. Briefly, either IgG CL03 or 4A06 was used as the capture antibody; the target antigens evaluated were as presented in Table 9 below; and an anti-CDCP1 polyclonal Ab was used as the detection antibody (R&D: Cat. #AF2666).

In another assay the target is T3, His-TEV-CUB1 (human, UniProt Q9H5V8 30-367).
T3 construct: also called CUB1 (His-TEV-CUB1, soluble NTF); not shown: His tag and TEV site
T3 sequence: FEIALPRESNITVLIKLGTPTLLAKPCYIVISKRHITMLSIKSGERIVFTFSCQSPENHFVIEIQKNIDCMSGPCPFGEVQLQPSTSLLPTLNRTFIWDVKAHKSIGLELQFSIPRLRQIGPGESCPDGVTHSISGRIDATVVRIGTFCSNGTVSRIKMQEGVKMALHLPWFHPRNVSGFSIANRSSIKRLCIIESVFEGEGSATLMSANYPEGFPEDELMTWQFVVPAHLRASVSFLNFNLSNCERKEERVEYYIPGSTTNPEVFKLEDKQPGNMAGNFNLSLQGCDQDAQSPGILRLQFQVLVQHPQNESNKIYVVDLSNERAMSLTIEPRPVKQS
The assay is described as above. Here is the method: as §1

The target of another assay is c-CDCP1. As to the kind of experiment: BLI (Octet RED384).
Assay [2] has as its target T4, cleaved human CDCP1 on the cell surface (endogenous, PDAC cells) (human) (UniProt Q9H5V8).
T4 sequence 1: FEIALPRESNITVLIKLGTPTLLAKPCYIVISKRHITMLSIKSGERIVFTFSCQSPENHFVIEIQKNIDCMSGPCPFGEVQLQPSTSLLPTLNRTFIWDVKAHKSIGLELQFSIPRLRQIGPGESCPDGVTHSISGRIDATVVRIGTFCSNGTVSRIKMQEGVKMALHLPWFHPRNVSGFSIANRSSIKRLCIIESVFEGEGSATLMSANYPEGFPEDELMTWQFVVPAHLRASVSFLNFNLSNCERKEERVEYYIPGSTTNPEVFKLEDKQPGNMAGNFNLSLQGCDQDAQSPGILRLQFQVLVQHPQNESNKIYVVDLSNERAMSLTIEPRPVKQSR
T4 sequence 2: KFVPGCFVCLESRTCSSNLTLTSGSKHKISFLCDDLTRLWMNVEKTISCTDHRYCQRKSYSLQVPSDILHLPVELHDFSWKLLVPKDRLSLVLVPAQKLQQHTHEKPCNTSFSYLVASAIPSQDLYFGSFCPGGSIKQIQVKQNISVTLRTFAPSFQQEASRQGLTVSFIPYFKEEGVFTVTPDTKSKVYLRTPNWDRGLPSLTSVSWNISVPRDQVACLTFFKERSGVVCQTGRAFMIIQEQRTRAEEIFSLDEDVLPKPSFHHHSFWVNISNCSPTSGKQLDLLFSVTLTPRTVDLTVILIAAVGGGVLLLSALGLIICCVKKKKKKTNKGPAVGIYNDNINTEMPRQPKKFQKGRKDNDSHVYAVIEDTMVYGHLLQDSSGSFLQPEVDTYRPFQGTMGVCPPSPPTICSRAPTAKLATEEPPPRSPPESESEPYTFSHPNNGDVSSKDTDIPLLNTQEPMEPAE
As to the kind of experiment: dose-response flow cytometry on PL45 cells; PL45 cells. In general terms: In flow cytometry, cells or beads pass a laser one at a time.

Assay [3] concerns the target T4, cleaved human CDCP1 on the cell surface (endogenous, PDAC cells) (human). As to the kind of experiment: dose-response flow cytometry on PL5 cells; PL5 cells.

B1: CL03 IgG (antibody, V domains shown)
VH: EVQLVESGGGLVQPGGSLRLSCAASGFNFSSYSIHWVRQAPGKGLEWVASIYPYSGSTYYADSVKGRFTISADTSKNTAYLQMNSLRAEDTAVYYCARQSHSYYSHTWWVSYGMDYWGQGTLVTVSS
VL: DIQMTQSPSSLSASVGDRVTITCRASQSVSSAVAWYQQKPGKAPKLLIYSASSLYSGVPSRFSGSRSGTDFTLTISSLQPEDFATYYCQQSGQRPITFGQGTKVEIKR
notes: also called IgG CL03
For the molecule B1, the binding result is listed as “no binding (tested: not printed)” in assay [1], “no binding (tested: 1000 ng/mL)” with His-CUB1 and “no binding (tested: 1000 ng/mL)” with His-TEV-CUB1. In addition, in the assay with c-CDCP1, the Kd lay within 0.15 to 0.84 nM. For the same molecule, the EC50 in assay [2] stood at 20.7 nM; in assay [3], 14.1 nM.

(Values after patent publication US20240376224A1 (University of California, published 2024).)
